Results as given in patent publication US20250277199, “NOVEL CRISPR-CAS NUCLEASES FROM METAGENOMES” (Brain Biotech AG, published 2025).

Biological target: T1, BMC02 (uncultured bacterium (metagenome))
T1 chain: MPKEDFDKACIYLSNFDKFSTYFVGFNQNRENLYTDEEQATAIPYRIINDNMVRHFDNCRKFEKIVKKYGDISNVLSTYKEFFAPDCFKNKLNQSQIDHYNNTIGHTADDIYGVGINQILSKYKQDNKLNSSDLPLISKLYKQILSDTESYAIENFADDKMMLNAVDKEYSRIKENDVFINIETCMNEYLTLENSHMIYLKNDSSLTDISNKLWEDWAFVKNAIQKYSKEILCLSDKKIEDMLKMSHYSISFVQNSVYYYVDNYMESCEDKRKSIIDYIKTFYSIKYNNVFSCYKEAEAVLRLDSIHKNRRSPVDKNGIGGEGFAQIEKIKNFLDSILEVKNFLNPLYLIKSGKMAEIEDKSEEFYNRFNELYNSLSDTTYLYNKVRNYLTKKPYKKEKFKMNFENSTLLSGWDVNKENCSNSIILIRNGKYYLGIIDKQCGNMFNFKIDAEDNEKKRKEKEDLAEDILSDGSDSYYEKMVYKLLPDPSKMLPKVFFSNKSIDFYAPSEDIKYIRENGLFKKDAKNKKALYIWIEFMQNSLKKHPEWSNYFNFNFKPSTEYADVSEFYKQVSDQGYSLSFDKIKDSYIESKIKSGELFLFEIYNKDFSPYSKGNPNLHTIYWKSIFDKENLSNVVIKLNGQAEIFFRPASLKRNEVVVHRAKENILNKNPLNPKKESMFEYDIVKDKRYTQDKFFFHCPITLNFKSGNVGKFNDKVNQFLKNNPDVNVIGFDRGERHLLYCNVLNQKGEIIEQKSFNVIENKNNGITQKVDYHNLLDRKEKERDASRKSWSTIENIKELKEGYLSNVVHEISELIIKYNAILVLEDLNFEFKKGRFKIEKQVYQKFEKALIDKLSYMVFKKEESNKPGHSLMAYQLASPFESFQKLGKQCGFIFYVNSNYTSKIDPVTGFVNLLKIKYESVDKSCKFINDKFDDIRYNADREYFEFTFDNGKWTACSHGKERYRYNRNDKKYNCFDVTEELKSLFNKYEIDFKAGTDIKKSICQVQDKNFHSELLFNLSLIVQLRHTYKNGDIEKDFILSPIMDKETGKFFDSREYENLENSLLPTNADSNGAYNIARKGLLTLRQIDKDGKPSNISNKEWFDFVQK
Experiment: cell_activity; PAM not stated; E. coli depletion, 30 C
In short: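 E. coli carrying arabinose-induced (0.2%) BMC nuclease, grown at 30° C., made electrocompetent and electroporated with 50-100 ng plasmid carrying gRNA against malQ. Transformants plated on selective M9-glucose agar with kanamycin/ampicillin (± nourseothricin), and growth scored after 48 h at 30° C.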

B1: malQ gRNA (BMC stem-loop + 24 nt spacer) ; malQ protospacer (ssRNA ; dsDNA)
RNA: GAUUUCUACUAUUGUAGAUGUGGCGGUACGUUGAUGCAUCGCG
DNA 1: GTGGCGGTACGTTGATGCATCGCG
DNA 2: CGCGATGCATCAACGTACCGCCAC
activity: > 99.9 % colony reduction
